The values below come from paper PMC11154593, “New insights into the domain of unknown function (DUF) of EccC5, the pivotal ATPase providing the secretion driving force to the ESX-5 secretion system” (Acta Crystallographica. Section D, Structural Biology, 2024).

This series deals with the molecule itself. Briefly: SEC; […] (16/60) […]; 20 mM Tris-HCl pH 7.5, 150 mM NaCl ([…]) or 20 mM HEPES pH 7.5, 150 mM NaCl, 5 mM MgCl2 ([…]; 4°C. On the technique in general: SEC sorts molecules by how far they enter the pores of the column.

Several values for one entry are separate records, joined by “and”; a condition that tells them apart may be missing. Equal values may be shown once.

B1: DUF domain of EccC5 from M. tuberculosis (crystallographic construct, residues 1-417 with 17-118 rep (domain or fragment)
chain: MKRGFARPTPEKPPVIGSSGQESADSMDANYRWFHPAPNTLAAAVGSPRMWERKPDGKDLNFGVVRVGGSGFGRYQSVVYNLPKMVSLLVEPWYALVGEREQVLGLMRAIICQLAFSHGPDHVQMIVVSSDLDQWDWVKWLPHFGDSRRHDAAGNARMVYTSVREFAAEQAELFAGRGSFTPRHASSSAQTPTPHTVIIADVDDPQWEYVISAEGVDGVTFFDLTGSSMWTDIPERKLQFDKTGVIEALPRDRDTWMVIDDKAWFFALTDQVSIAEAEEFAQKLAQWRLA
notes: EccC5, M. tuberculosis, UniProt P9WNA5, residues 1-16 (before the removed transmembrane region); linker replacing residues 17-118; EccC5, M. tuberculosis, UniProt P9WNA5, residues 119-166; linker replacing residues 167-198; EccC5, M. tuberculosis, UniProt P9WNA5, residues 199-417; also called MtbEccC5 DUF; EccC5 DUF; not shown: His6, N-terminal, cleaved; SUMO, N-terminal, cleaved
What is called stoichiometry N is the number of molecules, sites or subunits per partner or assembly. Consider B1, for which the “stoichiometry N” value was 3 and 6.
